# From US20210301005A1 (Genentech, published 2021)
# Positions count from the first letter of the chain named. Where two headings read alike, the source gives them in different places.
# B1: 6F12 (antibody, V domains shown)
# VH: QVQLKESGPGLVQPSQTLSLTCTVSGFSLTTYNVHWVRQPPGKGLEWMGLIWNTGGTRYNSALKSRLSISKDTSKSQVFLRMNSLQTEDTATYYCARDPVPNKWHFDFWGPGTMVTVSS
# VL: DIQMTQSPASLSASLGETVTIECLASEDIYSNLAWYQQKPGKSPQLLIYDARSLQDGVPSRFSGSESGPQYSLEINSLQSEDAVTYFCQQHHAYPFTFGSGTKLEIK
# notes: anti-TGFβ2; called rat and rabbit in different places; also called rat 6F12; r6F12
# B2: h4A11.v7 (antibody, human IgG1, kappa, N297G)
# heavy: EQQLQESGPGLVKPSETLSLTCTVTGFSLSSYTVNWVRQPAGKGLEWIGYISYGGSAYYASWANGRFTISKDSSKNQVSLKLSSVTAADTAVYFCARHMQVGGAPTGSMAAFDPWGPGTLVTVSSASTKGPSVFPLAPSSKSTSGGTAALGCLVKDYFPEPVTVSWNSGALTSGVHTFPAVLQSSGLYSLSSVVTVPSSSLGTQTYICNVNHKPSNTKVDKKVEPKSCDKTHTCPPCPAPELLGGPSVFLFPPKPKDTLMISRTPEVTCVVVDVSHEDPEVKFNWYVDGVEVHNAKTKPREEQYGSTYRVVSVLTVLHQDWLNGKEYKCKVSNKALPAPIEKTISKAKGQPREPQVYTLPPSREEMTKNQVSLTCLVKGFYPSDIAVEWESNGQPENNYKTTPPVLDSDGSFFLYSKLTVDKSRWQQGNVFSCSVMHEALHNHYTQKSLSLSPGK
# light: EAVLTQSPGTLSLSPGERATLSCQSSQSVYNNNYLSWFQQKPGQPPRLLIYGASTLTSGVPDRFSGSGSGTDFTLTISRLEPEDFAVYYCAGGYSGSSDKYAFGGGTKVEIKRTVAAPSVFIFPPSDEQLKSGTASVVCLLNNFYPREAKVQWKVDNALQSGNSQESVTEQDSKDSTYSLSSTLTLSKADYEKHKVYACEVTHQGLSSPVTKSFNRGEC
# Legend:
# [1] = molecular target: T1, human TGFβ2, mature receptor-binding domain (human, UniProt P09858 303-414 (pig entry), The mature TGFβ2 is a disulfide-linked homodimer of this 112-residue chain. The 4A11 epitope spans both monomers (p-1207).); assay: SPR
# T1 construct: Peprotech; also called TGFb2
# T1 sequence: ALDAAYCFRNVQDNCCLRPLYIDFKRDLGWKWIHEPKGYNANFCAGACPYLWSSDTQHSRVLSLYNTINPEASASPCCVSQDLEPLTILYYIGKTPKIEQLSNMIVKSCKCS
# [2] = molecular target: T1, human TGFβ2, mature receptor-binding …; assay: SPR; remark: listed apart in the source
# [3] = molecular target: T1, human TGFβ2, mature receptor-binding …; assay: BIAcore T200
# [4] = molecular target: T1, human TGFβ2, mature receptor-binding …; assay: cell-based or functional assay
# [5] = molecular target: T1, human TGFβ2, mature receptor-binding …; assay: Biacore SPR
# [6] = molecular target: T2, mouse TGFβ2, mature peptide (mouse, UniProt P27090 303-414); assay: Biacore SPR
# T2 construct: mature
# T2 sequence (looked up): T1 sequence with S59T, R60K, K94N
# [7] = molecular target: T3, human TGFβ1, mature receptor-binding domain (human, UniProt P01137 279-390); assay: cell-based or functional assay
# T3 sequence (P01137 279-390 limits assumed): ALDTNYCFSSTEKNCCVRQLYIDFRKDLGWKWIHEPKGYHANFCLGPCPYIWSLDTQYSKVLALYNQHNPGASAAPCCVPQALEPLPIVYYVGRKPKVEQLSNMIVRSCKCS
# [8] = molecular target: T1, human TGFβ2, mature receptor-binding …; assay: cell-based or functional assay; remark: listed apart in the source
# [9] = molecular target: T4, human TGFβ3, mature dimeric form (human, UniProt P10600 301-412); assay: cell-based or functional assay
# T4 sequence: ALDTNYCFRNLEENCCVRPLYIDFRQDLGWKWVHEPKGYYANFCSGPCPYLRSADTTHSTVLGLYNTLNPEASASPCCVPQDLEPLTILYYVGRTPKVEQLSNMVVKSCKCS
# [10] = molecular target: T3, human TGFβ1, mature receptor-binding …; assay: cell-based or functional assay; remark: listed apart in the source
# [11] = molecular target: T1, human TGFβ2, mature receptor-binding …; assay: cell-based or functional assay; remark: listed apart in the source
# [12] = molecular target: T4, human TGFβ3, mature dimeric form; assay: cell-based or functional assay; remark: listed apart in the source
# [13] = molecular target: T3, human TGFβ1, mature receptor-binding …; assay: cell-based or functional assay; remark: listed apart in the source
# [14] = molecular target: T1, human TGFβ2, mature receptor-binding …; assay: cell-based or functional assay; remark: listed apart in the source
# [15] = molecular target: T4, human TGFβ3, mature dimeric form; assay: cell-based or functional assay; remark: listed apart in the source
# [16] = molecular target: T1, human TGFβ2, mature receptor-binding …; assay: cell-based or functional assay; remark: listed apart in the source
# [17] = molecular target: T2, mouse TGFβ2, mature peptide; assay: cell-based or functional assay
# [18] = molecular target: T1, human TGFβ2, mature receptor-binding …; assay: BIAcore T200; remark: listed apart in the source
# Procedure: (§1) For binding affinity determinations of all humanized 2A10 antibodies, Surface Plasmon Resonance (SPR) measurement with a BIAcore™-T200 instrument was used. Briefly, series S CM5 biosensor chip with protein A was first applied to capture each humanized 2A10 variant to achieve approximately 100 response units (RU) on each flow cell, following by injection of 3-fold serial dilutions of human TGFβ1, TGFβ2 or TGFβ3 (0.02 nM to 5 nM) in HBS-EP buffer (0.01M HEPES pH 7.4, 0.15M NaCl, 3 mM EDTA and 0.05% v/v surfactant P20) at 25° C. with a flow rate of 50 μl/min for kinetics measurement. Association rates (ko.) and dissociation rates (koff) were calculated using a simple one-to-one Langmuir binding model (BIAcore T200 evaluation software version 2.0) to determine the equilibrium dissociation constant (KD), which was calculated as the ratio koff/kₒₙ.
# (§2) Binding affinity determinations of all humanized 4A11 antibodies were performed using SPR measurement with a BIAcore™-T200 instrument, as described above in Example 6 ([…]).
# [19] = molecular target: T4, human TGFβ3, mature dimeric form; assay: BIAcore T200
# Procedure: as §1, §2
# [20] = molecular target: T3, human TGFβ1, mature receptor-binding …; assay: BIAcore T200
# Procedure: as §1, §2
# [21] = molecular target: T1, human TGFβ2, mature receptor-binding …; assay: BIAcore T200; remark: listed apart in the source
# Procedure: as §1, §2
# [22] = molecular target: T4, human TGFβ3, mature dimeric form; assay: BIAcore T200; remark: listed apart in the source
# Procedure: as §1, §2
# [23] = molecular target: T3, human TGFβ1, mature receptor-binding …; assay: BIAcore T200; remark: listed apart in the source
# Procedure: as §1, §2
# [24] = molecular target: T1, human TGFβ2, mature receptor-binding …; assay: BIAcore T200; remark: listed apart in the source
# Procedure: as §1, §2
# [25] = molecular target: T4, human TGFβ3, mature dimeric form; assay: BIAcore T200; remark: listed apart in the source
# Procedure: as §1, §2
# [26] = molecular target: T3, human TGFβ1, mature receptor-binding …; assay: cell-based or functional assay; remark: listed apart in the source
# [27] = molecular target: T1, human TGFβ2, mature receptor-binding …; assay: cell-based or functional assay; remark: listed apart in the source
# [28] = molecular target: T4, human TGFβ3, mature dimeric form; assay: cell-based or functional assay; remark: listed apart in the source
# [29] = molecular target: T3, human TGFβ1, mature receptor-binding …; assay: cell-based or functional assay; remark: listed apart in the source
# [30] = molecular target: T1, human TGFβ2, mature receptor-binding …; assay: cell-based or functional assay; remark: listed apart in the source
# [31] = molecular target: T4, human TGFβ3, mature dimeric form; assay: cell-based or functional assay; remark: listed apart in the source
# [32] = molecular target: T3, human TGFβ1, mature receptor-binding …; assay: cell-based or functional assay; remark: listed apart in the source
# [33] = molecular target: T1, human TGFβ2, mature receptor-binding …; assay: cell-based or functional assay; remark: listed apart in the source
# [34] = molecular target: T4, human TGFβ3, mature dimeric form; assay: cell-based or functional assay; remark: listed apart in the source
binder,measurement,setting,value
B1,Kd,[1],< 0.01 nM
same,Kd,[2],< 0.001 nM
same,Kd,[3],≤ 0.0005 nM
same,cell-based IC50,[4],< 0.25 nM
same,fold potency against 1D11,[4],~100 fold
same,Kd,[5],< 0.001 nM
same,Kd,[6],< 0.001 nM
same,Blocking IC50,[7],> 500 nM
same,Blocking IC50,[8],0.04 nM
same,Blocking IC50,[9],> 500 nM
same,HEKBlue TGFβ blocking IC50,[10],> 200 nM
same,HEKBlue TGFβ blocking IC50,[11],0.004 nM
same,HEKBlue TGFβ blocking IC50,[12],> 200 nM
same,HEKBlue TGFβ blocking IC50,[13],> 200 nM
same,HEKBlue TGFβ blocking IC50,[14],0.004 nM
same,HEKBlue TGFβ blocking IC50,[15],> 200 nM
same,IC50 (read off the curve),[16],~0.03 nM
same,IC50 (read off the curve),[17],~0.06 nM
B2,Kd,[18],0.0063 nM
same,Kd,[19],0.0097 nM
same,Kd,[20],> 5 nM
same,Kd,[21],0.0063 nM
same,Kd,[22],0.0097 nM
same,Kd,[23],> 5 nM
same,Kd,[24],0.0063 nM
same,Kd,[25],0.0097 nM
same,HEKBlue TGFβ blocking IC50,[26],> 200 nM
same,HEKBlue TGFβ blocking IC50,[27],0.09 nM
same,HEKBlue TGFβ blocking IC50,[28],0.03 nM
same,HEKBlue TGFβ blocking IC50,[29],> 200 nM
same,HEKBlue TGFβ blocking IC50,[30],0.09 nM
same,HEKBlue TGFβ blocking IC50,[31],0.03 nM
same,HEKBlue TGFβ blocking IC50,[32],> 200 nM
same,HEKBlue TGFβ blocking IC50,[33],0.09 nM
same,HEKBlue TGFβ blocking IC50,[34],0.03 nM
